Results reported in PMC4373775.

Target: T1, ParB (Mycobacterium tuberculosis H37Rv) (UniProt P9WIJ9)
T1 sequence: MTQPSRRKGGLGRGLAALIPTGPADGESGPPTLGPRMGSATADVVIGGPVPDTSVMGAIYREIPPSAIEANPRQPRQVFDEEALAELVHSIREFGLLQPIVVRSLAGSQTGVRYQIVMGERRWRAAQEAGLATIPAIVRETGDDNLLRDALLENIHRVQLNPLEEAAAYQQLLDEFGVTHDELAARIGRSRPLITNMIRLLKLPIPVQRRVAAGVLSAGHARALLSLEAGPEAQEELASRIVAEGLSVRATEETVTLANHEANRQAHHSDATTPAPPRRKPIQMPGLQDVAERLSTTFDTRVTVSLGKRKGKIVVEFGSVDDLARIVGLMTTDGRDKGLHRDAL
Test: EMSA

GCGAGTGGAGGGACGGCGTGAGTGCTCCGTGGGGCCCGGTGGCCGCTGGACCGTCCGCGCTCGTAAGGTCGGGCCAGGCTTCAACTATCGAACCATTCCAGCGGGAAATGACACCACCGACACCGACGCCTGAGGCCGCGCACAATCCGACGATGAATGTTTCACGTGAAACATCGACAGAATTCGACACCCCCATCGGCGCTGCAGCAGAACGTGCGATGCG (double strand) [parS probe]
binding: binds
